Measured values as given in patent US20240109955A1.

B1: MX1027 (bispecific antibody)
chain 1: EIVMTQSPAILSVSPGERATLSCRASQSVAINLAWYQQKPGQAPRLLIYAASSRATGIPGRFSGSGSETNFTLTISSLQSGDFAVYYCQQYITWPPSYTFGQGTKLEIKGGSSGQTVVTQEPSFSVSPGGTVTLTCGLSSGSVSTAYFPSWYQQTPGQAPRTLIYGTNTRSSGVPDRFSGSILGNKAALTITGAQADDESDYYCVLYMGRGIVVFGGGTKLTVLGGGGSGGSGSGGGGSASGSGQVQLVESGGGVVQPGRSLRLSCAASGFTLSSYGMHWVRQAPGKGLEWVAVISYDGSNKYYVDSVKGRFTISRDNSKNTLYLQMNSLRAEDTAVYYCRWAYWELLPDYYYGMDVWGQGTTVTVSSGGSSGEVQLVESGGALIQPGGSLRLSCAASGIIVSANYMSWVRQAPGKGLEWVSVIYSGGSTFYADSVKGRFTISRDNSKNTLYLEMNSLRAEDTAVYYCARDAPILGVSDWGQGTLVTVSSASGGSGDKTHTCPPCPAPELLGGPSVFLFPPKPKDTLMISRTPEVTCVVVDVSHEDPEVKFNWYVDGVEVHNAKTKPREEQYNSYVVSVLTVLHQDWLNGKEYKCKVSNKALPAPIEKTISKAKGQPREPQVYTLPPCRDELTKNQVSLWCLVKGFYPSDIAVEWESNGQPENNYKTTPPVLDSDGSFFKKLTVDKSRWQQGNVFSCSVLHEALHSHYTQKSLSLSPG
chain 2: QTVVTQEPSFSVSPGGTVTLTCGLSSGSVSTAYFPSWYQQTPGQAPRTLIYGTNTRSSGVPDRFSGSILGNKAALTITGAQADDESDYYCVLYMGRGIVVFGGGTKLTVLGGSSGEIVMTQSPAILSVSPGERATLSCRASQSVAINLAWYQQKPGQAPRLLIYAASSRATGIPGRFSGSGSETNFTLTISSLQSGDFAVYYCQQYITWPPSYTFGQGTKLEIKGGGGSGGSGSGGGGSASGSGEVQLVESGGALIQPGGSLRLSCAASGIIVSANYMSWVRQAPGKGLEWVSVIYSGGSTFYADSVKGRFTISRDNSKNTLYLEMNSLRAEDTAVYYCARDAPILGVSDWGQGTLVTVSSGGSSGQVQLVESGGGVVQPGRSLRLSCAASGFTLSSYGMHWVRQAPGKGLEWVAVISYDGSNKYYVDSVKGRFTISRDNSKNTLYLQMNSLRAEDTAVYYCRWAYWELLPDYYYGMDVWGQGTTVTVSSASGGSGDKTHTCPPCPAPELLGGPSVFLFPPKPKDTLMISRTPEVTCVVVDVSHEDPEVKFNWYVDGVEVHNAKTKPREEQYNSYVVSVLTVLHQDWLNGKEYKCKVSNKALPAPIEKTISKAKGQPREPQVCTLPPSRDELTKNQVSLSCAVKGFYPSDIAVEWESNGQPENNYKTTPPVLDSDGSFFLVSKLTVDKSRWQQGNVFSCSVLHEALHSHYTQKSLSLSPG
B2: MX1028 (bispecific antibody)
chain 1: EIVMTQSPAILSVSPGERATLSCRASQSVAINLAWYQQKPGQAPRLLIYAASSRATGIPGRFSGSGSETNFTLTISSLQSGDFAVYYCQQYITWPPSYTFGQGTKLEIKGGSSGDTVMTQSPLSLPVTPGEPASISCRSSQSLLNSNGYNYLDWYVQKPGQSPQLLIYLGSNRASGVPDRFSGSGSGTDFTLKISRVEAEDVGVYYCMQPLQTPLFTFGPGTKVEIKGGGGSGGSGSGGGGSASGSGQVTLRESGPALVKPTQTLTLTCTFSGFSLSTRGVCVSWIRQPPGKALEWLAFIDWDDDKYYNTSLKTRLTISKDTSKNQVVLTMTNVHPVDTATYYCARISSHHGSSWCTTFDYWGQGALVTVSAGGSSGEVQLVESGGALIQPGGSLRLSCAASGIIVSANYMSWVRQAPGKGLEWVSVIYSGGSTFYADSVKGRFTISRDNSKNTLYLEMNSLRAEDTAVYYCARDAPILGVSDWGQGTLVTVSSASGGSGDKTHTCPPCPAPELLGGPSVFLFPPKPKDTLMISRTPEVTCVVVDVSHEDPEVKFNWYVDGVEVHNAKTKPREEQYNSYVVSVLTVLHQDWLNGKEYKCKVSNKALPAPIEKTISKAKGQPREPQVYTLPPCRDELTKNQVSLWCLVKGFYPSDIAVEWESNGQPENNYKTTPPVLDSDGSFFKKLTVDKSRWQQGNVFSCSVLHEALHSHYTQKSLSLSPG
chain 2: DTVMTQSPLSLPVTPGEPASISCRSSQSLLNSNGYNYLDWYVQKPGQSPQLLIYLGSNRASGVPDRFSGSGSGTDFTLKISRVEAEDVGVYYCMQPLQTPLFTFGPGTKVEIKGGSSGEIVMTQSPAILSVSPGERATLSCRASQSVAINLAWYQQKPGQAPRLLIYAASSRATGIPGRFSGSGSETNFTLTISSLQSGDFAVYYCQQYITWPPSYTFGQGTKLEIKGGGGSGGSGSGGGGSASGSGEVQLVESGGALIQPGGSLRLSCAASGIIVSANYMSWVRQAPGKGLEWVSVIYSGGSTFYADSVKGRFTISRDNSKNTLYLEMNSLRAEDTAVYYCARDAPILGVSDWGQGTLVTVSSGGSSGQVTLRESGPALVKPTQTLTLTCTFSGFSLSTRGVCVSWIRQPPGKALEWLAFIDWDDDKYYNTSLKTRLTISKDTSKNQVVLTMTNVHPVDTATYYCARISSHHGSSWCTTFDYWGQGALVTVSAASGGSGDKTHTCPPCPAPELLGGPSVFLFPPKPKDTLMISRTPEVTCVVVDVSHEDPEVKFNWYVDGVEVHNAKTKPREEQYNSYVVSVLTVLHQDWLNGKEYKCKVSNKALPAPIEKTISKAKGQPREPQVCTLPPSRDELTKNQVSLSCAVKGFYPSDIAVEWESNGQPENNYKTTPPVLDSDGSFFLVSKLTVDKSRWQQGNVFSCSVLHEALHSHYTQKSLSLSPG
B3: A46 + B8 (protein)
VH 1: QVQLVESGGGVVQPGRSLRLSCAASGFTLSSYGMHWVRQAPGKGLEWVAVISYDGSNKYYVDSVKGRFTISRDNSKNTLYLQMNSLRAEDTAVYYCRWAYWELLPDYYYGMDVWGQGTTVTVSS
VL 1: QTVVTQEPSFSVSPGGTVTLTCGLSSGSVSTAYFPSWYQQTPGQAPRTLIYGTNTRSSGVPDRFSGSILGNKAALTITGAQADDESDYYCVLYMGRGIVVFGGGTKLTVL
VH 2: EVQLVESGGALIQPGGSLRLSCAASGIIVSANYMSWVRQAPGKGLEWVSVIYSGGSTFYADSVKGRFTISRDNSKNTLYLEMNSLRAEDTAVYYCARDAPILGVSDWGQGTLVTVSS
VL 2: EIVMTQSPAILSVSPGERATLSCRASQSVAINLAWYQQKPGQAPRLLIYAASSRATGIPGRFSGSGSETNFTLTISSLQSGDFAVYYCQQYITWPPSYTFGQGTKLEIK
B4: E8 + B8 (protein)
VH 1: QVTLRESGPALVKPTQTLTLTCTFSGFSLSTRGVCVSWIRQPPGKALEWLAFIDWDDDKYYNTSLKTRLTISKDTSKNQVVLTMTNVHPVDTATYYCARISSHHGSSWCTTFDYWGQGALVTVSA
VL 1: DTVMTQSPLSLPVTPGEPASISCRSSQSLLNSNGYNYLDWYVQKPGQSPQLLIYLGSNRASGVPDRFSGSGSGTDFTLKISRVEAEDVGVYYCMQPLQTPLFTFGPGTKVEIK
VH 2: B3 VH 2
VL 2: B3 VL 2

How the values were obtained:
Assay in all cases: cell-based or functional assay
[1] = biological target: SARS-CoV-2 Omicron variant BQ.1 spike protein (SARS-CoV-2)
[2] = biological target: SARS-CoV-2 Omicron variant BQ.1.1 spike protein (SARS-CoV-2)
[3] = biological target: SARS-CoV-2 Omicron variant XBB spike protein (SARS-CoV-2)
[4] = biological target: SARS-CoV-2 Omicron variant BA.2.75.2 spike protein (SARS-CoV-2)
[5] = biological target: SARS-CoV-2 Omicron variant BA.4/5 spike protein (SARS-CoV-2)

Binder | IC50, pseudovirus neutralization [1] | IC80, pseudovirus neutralization [1] | IC50, pseudovirus neutralization [2] | IC80, pseudovirus neutralization [2] | IC50, pseudovirus neutralization [3] | IC80, pseudovirus neutralization [3] | IC50, pseudovirus neutralization [4] | IC80, pseudovirus neutralization [4] | IC50, pseudovirus neutralization [5] | IC80, pseudovirus neutralization [5]
B1 | 0.0216 µg/mL | 0.0649 µg/mL | 0.0135 µg/mL | 0.0232 µg/mL | 0.0129 µg/mL | 0.0207 µg/mL |  |  |  | 
B2 | 0.0105 µg/mL | 0.0255 µg/mL | 0.0042 µg/mL | 0.0144 µg/mL | 0.00677 µg/mL | 0.0161 µg/mL | 0.00243 µg/mL | 0.0074 µg/mL | 0.00181 µg/mL | 0.00373 µg/mL
B3 | 0.0186 µg/mL | 0.0493 µg/mL | 0.0145 µg/mL | 0.0273 µg/mL | 0.0186 µg/mL | 0.0481 µg/mL |  |  |  | 
B4 | 0.011 µg/mL | 0.0305 µg/mL | 0.00955 µg/mL | 0.0132 µg/mL | 0.00996 µg/mL | 0.0181 µg/mL |  |  |  | 
